From patent US20170355768A1 (Bristol-Myers Squibb, published 2017) come the findings set out here.

This assay deals with T1, human SLAM family member 7 (hSLAMF7) expressed on A20-hSLAMF7-GFP cells (human, UniProt Q9NQ25 23-335).
T1 construct: also called CS1; CS1-L
As to the kind of experiment: flow cytometry, 6.25 ug/ml Elotuzumab on A20-hSLAMF7-GFP cells, anti-human IgG-PE secondary. On the procedure:
FIG. 3. Elotuzumab binding to hSLAMF7 expressed in A20 cells was confirmed by flow cytometry. A20-GFP or A20-hSLAMF7-GFP cells were incubated with 6.25 ug/ml Elotuzumab (BMS), washed twice and incubated with anti-human IgG-PE secondary antibody. The frequency of cells staining positive for GFP and hSLAMF7 is shown at 0 days.
To determine whether hSLAMF7 expressed in A20 is recognized by Elotuzumab, A20-GFP and A20-hSLAMF7-GFP cells were stained with Elotuzumab. A20-GFP or A20-hSLAMF7-GFP cells were incubated with 6.25 ug/ml Elotuzumab (BMS), washed twice and incubated with anti-human IgG-PE secondary antibody. The frequency of cells staining positive for GFP and hSLAMF7 was determined using flow cytometry.
For orientation: Flow cytometry measures light scatter and fluorescence of single cells or particles in a stream.

B1: Elotuzumab (antibody, V domains shown)
VH: EVQLVESGGGLVQPGGSLRLSCAASGFDFSRYWMSWVRQAPGKGLEWIGEINPDSSTINYAPSLKDKFIISRDNAKNSLYLQMNSLRAEDTAVYYCARPDGNYWYFDVWGQGTLVTVSS
VL: DIQMTQSPSSLSASVGDRVTITCKASQDVGIAVAWYQQKPGKVPKLLIYWASTRHTGVPDRFSGSGSGTDFTLTISSLQPEDVATYYCQQYSSYPYTFGQGTKVEIK
notes: also called BMS-901608; HuLuc63
Take B1: the binding result is reported as “binds”.
